Measurements published in PMC4663267, “A Novel C-Terminal Domain of RecJ is Critical for Interaction with HerA in Deinococcus radiodurans”.

Columns and labels:
[1] = molecular target: T1, DrHerA (Deinococcus radiodurans, UniProt Q9RW32 1-618); assay: EMSA; HerA alone; EMSA: 100 nM DNA, 80 mM NaCl, 20 mM Tris-HCl pH 7.5, 1 mM DTT, 30 C, 10 min, 5% TBE native PAGE; details: protein: recombinant; tags: N-terminal His6; chain copies: 6; label: 5' FAM; single strand
T1 sequence: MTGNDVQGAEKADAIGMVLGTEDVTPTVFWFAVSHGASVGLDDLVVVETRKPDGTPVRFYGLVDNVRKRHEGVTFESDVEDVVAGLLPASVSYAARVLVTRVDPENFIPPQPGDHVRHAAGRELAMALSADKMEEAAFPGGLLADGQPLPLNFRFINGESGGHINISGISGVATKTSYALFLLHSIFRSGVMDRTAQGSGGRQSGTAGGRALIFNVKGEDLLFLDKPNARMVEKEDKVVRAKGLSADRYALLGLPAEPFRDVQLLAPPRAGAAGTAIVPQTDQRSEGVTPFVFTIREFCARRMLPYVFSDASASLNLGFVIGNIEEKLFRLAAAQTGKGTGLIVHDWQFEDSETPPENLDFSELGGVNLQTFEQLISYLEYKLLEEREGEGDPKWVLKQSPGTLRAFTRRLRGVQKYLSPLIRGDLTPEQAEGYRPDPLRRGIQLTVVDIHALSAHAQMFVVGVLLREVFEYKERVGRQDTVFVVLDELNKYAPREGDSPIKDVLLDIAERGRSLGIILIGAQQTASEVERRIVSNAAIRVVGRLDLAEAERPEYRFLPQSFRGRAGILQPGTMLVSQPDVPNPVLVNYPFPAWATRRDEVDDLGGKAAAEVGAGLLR

[2] = molecular target: T2, DrRecJ (Deinococcus radiodurans, UniProt D0EM60 1-705); assay: EMSA; DNA:RecJ 1:2 to 1:16; no metal added; EMSA: 100 nM DNA, 80 mM NaCl, 20 mM Tris-HCl pH 7.5, 1 mM DTT, 30 C, 10 min, 5% TBE native PAGE; details: protein: recombinant; tags: HMT (His6-MBP) tag removed by TEV; label: 5' FAM; single strand
T2 sequence: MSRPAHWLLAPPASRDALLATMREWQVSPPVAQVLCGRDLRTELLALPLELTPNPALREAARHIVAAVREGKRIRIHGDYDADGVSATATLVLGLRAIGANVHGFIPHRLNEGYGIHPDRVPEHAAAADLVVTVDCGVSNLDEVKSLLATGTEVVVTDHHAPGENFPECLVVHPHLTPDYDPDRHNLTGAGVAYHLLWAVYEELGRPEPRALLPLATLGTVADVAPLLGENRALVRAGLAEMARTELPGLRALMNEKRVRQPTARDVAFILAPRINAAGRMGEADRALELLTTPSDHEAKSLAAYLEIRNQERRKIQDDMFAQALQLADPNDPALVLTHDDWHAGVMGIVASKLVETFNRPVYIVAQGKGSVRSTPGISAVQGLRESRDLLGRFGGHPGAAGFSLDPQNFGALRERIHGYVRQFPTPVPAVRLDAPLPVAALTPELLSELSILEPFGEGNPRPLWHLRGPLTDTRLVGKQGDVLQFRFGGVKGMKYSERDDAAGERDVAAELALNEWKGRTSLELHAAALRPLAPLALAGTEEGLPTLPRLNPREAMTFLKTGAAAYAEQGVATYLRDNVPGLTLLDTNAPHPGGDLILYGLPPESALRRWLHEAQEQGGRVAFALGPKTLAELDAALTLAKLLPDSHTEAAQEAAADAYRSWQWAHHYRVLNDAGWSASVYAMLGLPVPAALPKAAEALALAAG

B1: O1 (10 nt ssDNA) (ssDNA)
DNA: AAAAAAAAAA
B1: no binding [1]; binds [2].
